The assay has as its target activin-like kinase 4 and/or 5 receptor (ALK4/5). The experiment in a line: cell-based or functional assay.

This passage reports Smad-2/3 responsive luciferase reporter, maximal response results from patent publication US20210115098A1.

On to “Cumulin-like GDF9_H369N (Mutant 7) (from UniProt O60383 30-318) (ligand)”, for which the Smad-2/3 responsive luciferase reporter, maximal response at 50 ng/mL relative to Mutant 1 came to 10 % reduction.
